Assay: protein stability index of a GFP-peptide fusion (GPS, HEK-293T) (PSI 1-6); higher = more stable
Conditions: c terminus: native
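Further: lentivirally expressed fusion library, cells FACS-sorted into six equal-sized GFP/DsRed ratio bins, PSI computed from sequencing read fractions per bin weighted by bin number.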

**Q.** With CQPISFSGFGAEDDDLGGLGLGPY [POLD2 addY] as the protein, how does the protein stability index (parent: NP_006221.1) read?
**A.** Its protein stability index is 2.32.

**Q.** With HSLRAVSTDPPHHDHHDEFCLMPY [BEX2 addY] as the protein, how does the protein stability index (parent: NP_116010.1) read?
**A.** Its protein stability index is 3.52.

**Q.** For DGWIRVSSDNVADLHEKYSGSTPY [PSMB5 addY], which protein stability index (parent: NP_002788.1) is on record?
**A.** The protein stability index was 3.43.

**Q.** With LPALFTDLYSQEITAEEAREALPY [SNF8 addY] as the protein, how does the protein stability index (parent: NP_009172.2) read?
**A.** The protein stability index was 4.33.

**Q.** Which protein stability index (parent: NP_015628.1) does the source give for EQRNSRWNTVLRAVKAKTHHLEPY [TRPA1 addY] here?
**A.** The protein stability index was 4.2.

From the supplement of paper PMC10567573
